In article doi:10.1101/2022.05.20.492803 one finds stoichiometry N data, which are given here for 1 substance.

This assay concerns the target GST protein (free GST, cleaved from GST-tagged proteins). In words: SAXS.

For the substance “GST protein (free GST, cleaved from GST-tagged proteins) (enzyme)”, the stoichiometry N came to 2.

The term stoichiometry N denotes a count of units in the complex or per binding partner.
